Assay results taken from PMC4609964, “Combination of six enzymes of a marine Novosphingobium converts the stereoisomers of β-O-4 lignin model dimers into the respective monomers” (Scientific Reports, 2015).

Key:
[1] = system: COc1ccc(C(O)C(CO)Oc2ccccc2OC)cc1OC; assay: purified protein; settings: NAD cofactor
[2] = system: COc1ccc(C(=O)C(CO)Oc2ccccc2OC)cc1OC; assay: purified protein; settings: GSH co-substrate, optimal pH 7−8, 40 °C (determined with MPHPV)
[3] = system: COc1cc(C(=O)C(CO)Oc2ccccc2OC)ccc1O; assay: purified protein; settings: GSH co-substrate, optimal pH 7−8, 40 °C, 1:1 β(R)/β(S) mixture (acts on β(R))
[4] = biological target: T1, GST3 (Novosphingobium sp. MBES04, UniProt A0A0S6WZT0); assay: chiral HPLC of glutathione removal to GHP; format: biochemical; settings: glutathione 2.0 mM; 25 °C, 16 h; both conjugates (formed by GST4 and by GST5)
T1 construct: gene MBENS4_2527; N-terminal His6 tag (pRSET A), E. coli BL21(DE3), His-tag resin purified
T1 sequence (A0A0S6WZT0 1-226): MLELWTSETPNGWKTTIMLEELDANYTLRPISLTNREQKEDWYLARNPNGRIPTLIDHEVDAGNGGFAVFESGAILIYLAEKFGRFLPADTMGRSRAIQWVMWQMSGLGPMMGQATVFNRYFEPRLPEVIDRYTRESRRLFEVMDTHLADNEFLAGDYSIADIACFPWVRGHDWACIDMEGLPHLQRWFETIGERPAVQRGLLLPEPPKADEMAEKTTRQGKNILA

[5] = biological target: T2, GST6 (Novosphingobium sp. MBES04, UniProt A0A0S6WVQ1); assay: chiral HPLC of glutathione removal to GHP; format: biochemical; settings: […] °C, […] h, both conjugates (formed by GST4 and by GST5)
T2 construct: gene MBENS4_2530; N-terminal His6 tag (pRSET A), E. coli BL21(DE3), His-tag resin purified
T2 sequence (A0A0S6WVQ1 1-283): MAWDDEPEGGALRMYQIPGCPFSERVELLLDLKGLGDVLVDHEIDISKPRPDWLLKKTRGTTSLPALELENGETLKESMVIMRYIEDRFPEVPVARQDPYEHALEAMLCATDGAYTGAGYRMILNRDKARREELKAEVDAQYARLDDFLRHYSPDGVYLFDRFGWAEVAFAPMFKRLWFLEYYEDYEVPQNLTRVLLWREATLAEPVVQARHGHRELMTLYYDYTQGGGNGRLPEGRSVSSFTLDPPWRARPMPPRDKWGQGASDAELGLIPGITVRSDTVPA

[6] = biological target: T1, GST3; assay: conventional GST assay (specific activity); format: biochemical; settings: glutathione co-substrate
[7] = substrate: COc1cc(C(=O)C(CO)Oc2ccccc2OC)ccc1O; assay: purified protein; format: biochemical, Novosphingobium sp. MBES04; settings: GSH co-substrate, optimal pH 9, 35 °C, 1:1 β(R)/β(S) mixture (acts on β(S))
[8] = substrate: COc1ccc(C(=O)C(CO)Oc2ccccc2OC)cc1OC; assay: purified protein; format: biochemical, Novosphingobium sp. MBES04; settings: GSH co-substrate, optimal pH 9, 35 °C (determined with MPHPV)
[9] = optimal conditions (pH 9–10, 30 °C)
[10] = optimal conditions (pH 9, 15 °C)

Molecule: SDR5 (Novosphingobium sp. MBES04)
- Km [1, 9]: 1100 µM
- kcat [1, 9]: 23.3 s⁻¹
- kcat/Km [1, 9]: 21700 M⁻¹ s⁻¹

Molecule: GST5 (Novosphingobium sp. MBES04)
- Km [2]: 780 µM
- kcat [2]: 0.158 s⁻¹
- kcat/Km [2]: 200 M⁻¹ s⁻¹
- Km [3]: 290 µM
- kcat [3]: 0.0583 s⁻¹
- kcat/Km [3]: 200 M⁻¹ s⁻¹

Molecule: SDR3 (Novosphingobium sp. MBES04)
- Km [1, 10]: 1500 µM
- kcat [1, 10]: 0.065 s⁻¹
- kcat/Km [1, 10]: 41.7 M⁻¹ s⁻¹

Molecule: COc1cc(C(=O)C(CO)SC[C@H](NC(=O)CC[C@H](N)C(=O)O)C(=O)NCC(=O)O)ccc1O (stereo partly drawn) [GS-GHP]
- chiral HPLC of glutathione removal to GHP [4]: the removal of glutathione from both glutathione conjugates of GHP produced by GST4 and GST5
- chiral HPLC of glutathione removal to GHP [5]: the removal of glutathione from both glutathione conjugates of GHP produced by GST4 and GST5

Molecule: O=[N+]([O-])c1ccc(Cl)c([N+](=O)[O-])c1 [CDNB]
- conventional GST assay (specific activity) [6]: the activity of GST3 towards 1-chloro-2,4-dinitrobenzene (CDNB)

B1: GST4 (Novosphingobium sp. MBES04) (protein)
chain: MLTLYSFGPGANSLKPLLALYEKGLEFTPRFVDPTKFEHHEEWFKKINPRGQVPALDHDGNVITESTVICEYLEDAFPDAPRLRPTDPVQIAEMRVWTKWVDEYFCWCVSTIGWERGIGPMARALSDEEFEEKVKRIPIPEQQAKWRSARAGFPKEVLDEEMRKIRVSIDRLEKRLSESTWLAGEDYTLADICNFAIANGMEKGFDDIVNTAATPNLVAWIERINARPACIEMFAKSKSEFAARKPFAKSEEQAQA
notes: N-terminal His6 tag (pRSET A), E. coli BL21(DE3), His-tag resin purified
- Km [7]: 470 µM
- kcat [7]: 0.75 s⁻¹
- kcat/Km [7]: 1580 M⁻¹ s⁻¹
- Km [8]: 550 µM
- kcat [8]: 0.3 s⁻¹
- kcat/Km [8]: 533 M⁻¹ s⁻¹
